In article PMC8528929:

Target: biotinylated SARS-CoV-2 RBD (SARS-CoV-2) (UniProt P0DTC2)
Assay: flow cytometry on antigen-coated beads

| Binder | EC50 [nM] |
| --- | --- |
| 12H2 (antibody, V domains shown) VH: EVQLQESGPGLVKPSQSLFLTCTVTGYSITSDYAWNWIRQFPGNKLEWMGYITYSGSTSYNPSLKSRISITRDTSKNQFFLQLNSVTTEDTATYYCARGDGYFFPLDYWGQGTTLTVSS VL: DIVMTQSPSSLSVSAGEKVTMSCKSSQSLLNSGNQKSYLAWYQQRPGQPPKLLIYGASTRESGVPDRFTGSGSGTDFTLTISSVQAEDLAVYYCQNDHSYPPTFGAGTKLELK | 0.066 |
| 13I1 (antibody, V domains shown) VH: EVQLQESGPGLVKPSQSLSLTCTVTGYSITSDYAWNWIRQFPGNKLEWMGYITYSGSTSYNPSLRSRISITRDTSKNQFFLQLNSVTSEDTATYYCARGDGYYFPLDYWGQGTTLTVSS VL: DIVMTQSPSSLSVSAGEKVTMSCKSSQSLLNGGNQKSYLAWYQQKPGQPPKLLIYGASTRESGVPDRFTGSGSGTDFTLTISSVQAEDLAVYYCQNDHSYPPTFGAGTKLELK | 0.082 |
